The term Kd denotes the equilibrium constant for the complex coming apart.

Experimental findings from PMC8934638, “H3K36 methylation and DNA-binding both promote Ioc4 recruitment and Isw1b remodeler function” are described below.

Experiment in all cases: EMSA; EMSA; 15 fmol NCP (30 fmol unmodified NCP) per reaction; 5% native PAGE (37.5:1) in 0.4x TBE, 2% glycerol; binding buffer, pH and temperature not given (as in cited work)
(In general: A gel shift assay detects complexes by their altered migration in electrophoresis.)

One data set concerns the target T1, Ioc4 2KE (Saccharomyces cerevisiae, UniProt Q04213 1-475, K149E;K150E).
T1 sequence: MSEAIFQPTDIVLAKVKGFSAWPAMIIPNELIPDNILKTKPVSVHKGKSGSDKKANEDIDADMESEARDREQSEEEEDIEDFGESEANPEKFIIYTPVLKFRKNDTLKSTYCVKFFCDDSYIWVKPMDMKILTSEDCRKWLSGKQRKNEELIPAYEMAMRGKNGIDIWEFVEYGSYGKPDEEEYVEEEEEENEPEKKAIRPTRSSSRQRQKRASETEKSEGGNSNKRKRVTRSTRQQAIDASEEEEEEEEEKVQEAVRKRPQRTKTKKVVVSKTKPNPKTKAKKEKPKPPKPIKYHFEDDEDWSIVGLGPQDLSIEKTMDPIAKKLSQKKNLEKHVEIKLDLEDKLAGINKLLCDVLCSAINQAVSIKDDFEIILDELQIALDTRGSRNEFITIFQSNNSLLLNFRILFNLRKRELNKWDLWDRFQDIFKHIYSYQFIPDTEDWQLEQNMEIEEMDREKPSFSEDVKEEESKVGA
Particulars: protein: recombinant; tags: N-terminal 6xHis-MBP; label: Cy5 on sense strand; blunt.

The target of the next data set is T2, Ioc4 PWWP 2KE (Saccharomyces cerevisiae, UniProt Q04213 1-178, K149E;K150E).
T2 sequence: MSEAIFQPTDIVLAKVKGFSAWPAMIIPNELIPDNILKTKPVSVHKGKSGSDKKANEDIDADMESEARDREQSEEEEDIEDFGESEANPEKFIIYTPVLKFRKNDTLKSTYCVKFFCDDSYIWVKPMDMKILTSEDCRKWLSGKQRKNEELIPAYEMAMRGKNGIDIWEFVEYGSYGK
Particulars: protein: recombinant; tags: N-terminal 6xHis; label: Cy5 on sense strand; blunt.

In another data set the target is T3, Ioc4 dPWWP (Saccharomyces cerevisiae, UniProt Q04213 179-475, del1-178).
T3 sequence: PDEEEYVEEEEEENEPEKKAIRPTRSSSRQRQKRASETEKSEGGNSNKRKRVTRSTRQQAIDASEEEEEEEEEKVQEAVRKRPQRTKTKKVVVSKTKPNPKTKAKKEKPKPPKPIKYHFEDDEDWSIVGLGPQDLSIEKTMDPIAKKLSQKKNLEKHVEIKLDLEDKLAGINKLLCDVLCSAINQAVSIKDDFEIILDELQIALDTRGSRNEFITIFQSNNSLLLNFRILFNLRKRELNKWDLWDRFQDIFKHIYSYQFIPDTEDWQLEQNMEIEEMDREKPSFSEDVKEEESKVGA
Particulars: protein: recombinant; tags: N-terminal 6xHis-MBP; label: Cy5 on sense strand; blunt.

A further data set concerns the target T4, Ioc4 PWWP 2KA (Saccharomyces cerevisiae, UniProt Q04213 1-178, K149A;K150A).
T4 sequence: T2 sequence with E149A, E150A
The following applies: protein: recombinant; label: Cy5 on sense strand; blunt.

Substitutions are numbered along the chain they refer to.

B1: dsDNA 30 bp (601-derived EMSA probe) (dsDNA)
DNA 1: GGCAAGGTCGCTGTTCAATACATGCACAGG
DNA 2: CCTGTGCATGTATTGAACAGCGACCTTGCC
On to B1, for which the Kd was found to be 76 nM with Ioc4 2KE and 121 nM with Ioc4 dPWWP. For the same molecule, the binding result with Ioc4 PWWP 2KE and with Ioc4 PWWP 2KA was “no binding” in each case.
